The text below walks through data of the RNAGym collection of RNA variant scans (doi:10.7554/elife.90254).

B1: OR4K15 (parent)
chain: GUUAACGGUCAUAGGCCAUGGAAACUAGGAGCACCAUUUCGCUGCCAGUGAAGAAAUGAACAAAGAAAAUCUGGGCCAGGCAGGCAUCAAAAGAAAUAGUCUUGCGCUCAACCAGAAAGUCUGUAAUCAUUUUAAGGGUA

Variants of B1 are the subject of the data set. The data set can be described thus: self-cleavage, relative activity (ratio to wild type); higher = more cleavage; in vitro, sequencing; the parent is a self-cleaving ribozyme.
For GUUAACGGUCAUAGGCCAUGGAAACUAGGAGCACCAUUUCGCUGCCAGUGAAGAAGUGAACAAAGAAAAUCUGGGCCAGGCAGGCAUCAAAAGAAAUAGUCUUGCGCUCAACCAGAAAGUCUGUAAUCAUUCUAAGGGUA [A56G U132C], the self-cleavage was 0.6.
Consider GUUAACGGUCAUAGGCCAUGGAAACUAGGAGCACCAUUUCGCUGCCAGUGAAGAAUUGAACAAAGAAAAUCUGGGCCAGGCAGGCACCAAAAGAAAUAGUCUUGCGCUCAACCAGAAAGUCUGUAAUCAUUUUAAGGGUA [A56U U87C], for which the self-cleavage amounted to 1.05.
In the case of GUUAACGGUCAUAGGCCAUGGAAACUAGGAGCACCAUUUCGCUGCCAGUGAAGAAGUGAACAAAGAAAAUCUGGGCCAGGCAGGCAUCAAAAGAAAUAGUCGUGCGCUCAACCAGAAAGUCUGUAAUCAUUUUAAGGGUA [A56G U102G], the self-cleavage amounted to 0.89.
For GUUAACGGUCAUAGGCCAUGGAAACUAGGAGCACCAUUUCGCUGCCAGUGAAGAAGUGAACAAAGAAAAUCUGGGCCAGGCAGGCAUCAAAAGAAAUAGUCCUGCGCUCAACCAGAAAGUCUGUAAUCAUUUUAAGGGUA [A56G U102C] the value was 1.67; for GUUAACGGUCAUAGGCCAUGGAAACUAGGAGCACCAUUUCGCUGCCAGUGAAGAAUUGAACAAAGAAAAUCUGGGCCAGGCAGGCAUCAAGAGAAAUAGUCUUGCGCUCAACCAGAAAGUCUGUAAUCAUUUUAAGGGUA [A56U A91G], 2.02.
Then GUUAACGGUCAUAGGCCAUGGAAACUAGGAGCACCAUUUCGCUGCCAGUGAAGAAUCGAACAAAGAAAAUCUGGGCCAGGCAGGCAUCAAAAGAAAUAGUCUUGCGCUCAACCAGAAAGUCUGUAAUCAUUUUAAGGGUA [A56U U57C], with 1.47; and GUUAACGGUCAUAGGCCAUGGAAACUAGGAGCACCAUUUCGCUGCCAGUGAAGAAAAGAACAAAGAAAAUCUGGGCCAGGCAGGCAUCAAAAGAAAUUGUCUUGCGCUCAACCAGAAAGUCUGUAAUCAUUUUAAGGGUA [U57A A98U], with 1.47; and GUUAACGGUCAUAGGCCAUGGAAACUAGGAGCACCAUUUCGCUGCCAGUGAAGAAUUGAACAAAGUAAAUCUGGGCCAGGCAGGCAUCAAAAGAAAUAGUCUUGCGCUCAACCAGAAAGUCUGUAAUCAUUUUAAGGGUA [A56U A66U], with 0.42.
For GUUAACGGUCAUAGGCCAUGGAAACUAGGAGCACCAUUUCGCUGCCAGUGAAGAAUUGAACAAAGAAAAUCUGGGCCAGGCAGGCAUCAAAAGAAGUAGUCUUGCGCUCAACCAGAAAGUCUGUAAUCAUUUUAAGGGUA [A56U A96G] the value was 1.62.
For GUUAACGGUCAUAGGCCAUGGAAACUAGGAGCACCAUUUCGCUGCCAGUGAAGAAUUGAACAAAGAAAAUCUGGGCCAGGCAGGCAUCAAAAGAAAUAGUCUAGCGCUCAACCAGAAAGUCUGUAAUCAUUUUAAGGGUA [A56U U103A], the self-cleavage came to 0.25.
As for GUUAACGGUCAUAGGCCAUGGAAACUAGGAGCACCAUUUCGCUGCCAGUGAAGAAAAGAACAAAGAAAAUCUGGGCCAGGCAGGCAUCAAAAGAGAUAGUCUUGCGCUCAACCAGAAAGUCUGUAAUCAUUUUAAGGGUA [U57A A95G], the self-cleavage is 2.11.
Then GUUAACGGUCAUAGGCCAUGGAAACUAGGAGCACCAUUUCGCUGCCAGUGAAGAAAAGAACAAAGAAAAUCUGGGCCAGGCAGGCAUCAAAAGAACUAGUCUUGCGCUCAACCAGAAAGUCUGUAAUCAUUUUAAGGGUA [U57A A96C], with 0.99.
For GUUAACGGUCAUAGGCCAUGGAAACUAGGAGCACCAUUUCGCUGCCAGUGAAGAAGUGAACAAAGAAAAUCUGGGCCAGGCAGGCAUCAAAAGAAAUAGUCUUGCGCUCAACCAGAAAGACUGUAAUCAUUUUAAGGGUA [A56G U120A], the self-cleavage turned out to be 1.19.
As for GUUAACGGUCAUAGGCCAUGGAAACUAGGAGCACCAUUUCGCUGCCAGUGAAGAAGUGAACAAAGAAAAUCUGGGCCAGGCAGGCAUCAAAAGAAAUAGUCUUGCGCUCAACCAGAAAGUCUGAAAUCAUUUUAAGGGUA [A56G U124A], the self-cleavage stood at 0.78.
Take GUUAACGGUCAUAGGCCAUGGAAACUAGGAGCACCAUUUCGCUGCCAGUGAAGAAAAGAACUAAGAAAAUCUGGGCCAGGCAGGCAUCAAAAGAAAUAGUCUUGCGCUCAACCAGAAAGUCUGUAAUCAUUUUAAGGGUA [U57A A62U]: the self-cleavage was 2.46.
Then GUUAACGGUCAUAGGCCAUGGAAACUAGGAGCACCAUUUCGCUGCCAGUGAAGAAUUGAGCAAAGAAAAUCUGGGCCAGGCAGGCAUCAAAAGAAAUAGUCUUGCGCUCAACCAGAAAGUCUGUAAUCAUUUUAAGGGUA [A56U A60G], with 0.43.
Then GUUAACGGUCAUAGGCCAUGGAAACUAGGAGCACCAUUUCGCUGCCAGUGAAGAAUUGAACAAAGAAAUUCUGGGCCAGGCAGGCAUCAAAAGAAAUAGUCUUGCGCUCAACCAGAAAGUCUGUAAUCAUUUUAAGGGUA [A56U A69U], with 0.67; and GUUAACGGUCAUAGGCCAUGGAAACUAGGAGCACCAUUUCGCUGCCAGUGAAGAAAAGAACAUAGAAAAUCUGGGCCAGGCAGGCAUCAAAAGAAAUAGUCUUGCGCUCAACCAGAAAGUCUGUAAUCAUUUUAAGGGUA [U57A A63U], with 1.38.
Then GUUAACGGUCAUAGGCCAUGGAAACUAGGAGCACCAUUUCGCUGCCAGUGAAGAAGUGAACAAAGAAAAUCUGGGCCAGGCAGGCAUCAAAAGAAAUAGUCUUGCGCUCAACCAGAAAGUCUGUAAUCAUAUUAAGGGUA [A56G U131A], with 0.6.
In the case of GUUAACGGUCAUAGGCCAUGGAAACUAGGAGCACCAUUUCGCUGCCAGUGAAGAAGUGAACAAAGAAAAUCUGGGCCAGGCAGGCAUCAAAAGAAAUAGUCUUGCGCUCAACCAGAAAGUCUGUAAUCAUCUUAAGGGUA [A56G U131C], the self-cleavage turned out to be 1.47.
For GUUAACGGUCAUAGGCCAUGGAAACUAGGAGCACCAUUUCGCUGCCAGUGAAGAAAAGAGCAAAGAAAAUCUGGGCCAGGCAGGCAUCAAAAGAAAUAGUCUUGCGCUCAACCAGAAAGUCUGUAAUCAUUUUAAGGGUA [U57A A60G] the value was 1.19.
For GUUAACGGUCAUAGGCCAUGGAAACUAGGAGCACCAUUUCGCUGCCAGUGAAGAAUUGAACAAAGAAAAUCUGGGCCAGGCAGGCAUCAAAAGAAAUAGUCUUGCGCUCAACCAGAAAGUCUGUAAUCAUUCUAAGGGUA [A56U U132C] the value was 1.11; for GUUAACGGUCAUAGGCCAUGGAAACUAGGAGCACCAUUUCGCUGCCAGUGAAGAAUUGAACAAAGAAAAUCUGGGCCAGGCAGGCAUCAAAAGAAAUAGUCUUGCGCUCAACCAGAAAGUCAGUAAUCAUUUUAAGGGUA [A56U U122A], 1.31.
For GUUAACGGUCAUAGGCCAUGGAAACUAGGAGCACCAUUUCGCUGCCAGUGAAGAAAAGAACAAAGAAAAUCUGGGCCAGGCAGGCAUCAAAAGAAAUAGUCUUGCGCUCUACCAGAAAGUCUGUAAUCAUUUUAAGGGUA [U57A A110U] the value was 1.
Turning to GUUAACGGUCAUAGGCCAUGGAAACUAGGAGCACCAUUUCGCUGCCAGUGAAGAAAAGAACAAAGAAAAUCUGGGCCAGGCAGGCAUCAAAAGAAAUAGUCUUGCGCUCCACCAGAAAGUCUGUAAUCAUUUUAAGGGUA [U57A A110C], the self-cleavage came to 0.17.
For GUUAACGGUCAUAGGCCAUGGAAACUAGGAGCACCAUUUCGCUGCCAGUGAAGAAAAGAACAAAGAAAAUCUGGGCCAGGCAGGCAUCAAAAGAAAUAGUCUUGCGCUCAGCCAGAAAGUCUGUAAUCAUUUUAAGGGUA [U57A A111G] the value was 0.02.
In the case of GUUAACGGUCAUAGGCCAUGGAAACUAGGAGCACCAUUUCGCUGCCAGUGAAGAAAAGAACAAAGAAAAUCUGGGCCAGGCAGGCAUCAAAAGAAAUAGUCUUGCGCUCAACCUGAAAGUCUGUAAUCAUUUUAAGGGUA [U57A A114U], the self-cleavage was 0.03.
For the variant GUUAACGGUCAUAGGCCAUGGAAACUAGGAGCACCAUUUCGCUGCCAGUGAAGAAAAGAACAAAGAAAAUCUGGGCCAGGCAGGCAUCAAAAGAAAUAGUCUUGCGCUCAACCGGAAAGUCUGUAAUCAUUUUAAGGGUA [U57A A114G], the self-cleavage came to 0.38.
For GUUAACGGUCAUAGGCCAUGGAAACUAGGAGCACCAUUUCGCUGCCAGUGAAGAAUUGAACAAAGAAGAUCUGGGCCAGGCAGGCAUCAAAAGAAAUAGUCUUGCGCUCAACCAGAAAGUCUGUAAUCAUUUUAAGGGUA [A56U A68G] the value was 0.34; for GUUAACGGUCAUAGGCCAUGGAAACUAGGAGCACCAUUUCGCUGCCAGUGAAGAAGUGAACAAAGAAAAUCUGGGCCAGGCAGGCAUCAAAAGAAAUAGUCUUGCGCACAACCAGAAAGUCUGUAAUCAUUUUAAGGGUA [A56G U108A], 0.02.
In the case of GUUAACGGUCAUAGGCCAUGGAAACUAGGAGCACCAUUUCGCUGCCAGUGAAGAAGUGAACAAAGAAAAUCUGGGCCAGGCAGGCAUCAAAAGAAAUAGUCUUGCGCUCAACCAGAAAGUCUGUAAUCACUUUAAGGGUA [A56G U130C], the self-cleavage came to 1.63.
Then GUUAACGGUCAUAGGCCAUGGAAACUAGGAGCACCAUUUCGCUGCCAGUGAAGAAGUGAACAAAGAAAAUCUGGGCCAGGCAGGCAUCAAAAGAAAUAGUCUUGCGCUCAACCAGAAAGUCUGUAACCAUUUUAAGGGUA [A56G U127C], with 0.96.
With GUUAACGGUCAUAGGCCAUGGAAACUAGGAGCACCAUUUCGCUGCCAGUGAAGAAUUGAACAAGGAAAAUCUGGGCCAGGCAGGCAUCAAAAGAAAUAGUCUUGCGCUCAACCAGAAAGUCUGUAAUCAUUUUAAGGGUA [A56U A64G], the self-cleavage worked out at 2.32.
Then GUUAACGGUCAUAGGCCAUGGAAACUAGGAGCACCAUUUCGCUGCCAGUGAAGAAGUGAACAAAGAAAAUCUGGGCCAGGCAGGCAUCAAAAGAAAUAGUCUUGCGCUCAACCAGAAAGUCAGUAAUCAUUUUAAGGGUA [A56G U122A], with 0.63.
For GUUAACGGUCAUAGGCCAUGGAAACUAGGAGCACCAUUUCGCUGCCAGUGAAGAAUUGAACAAAGAAAAUCUGGGCCAGGCAGGCAUCAAAAGAAAUAGUCUUGCGCUCAACCAGAAAGUCUGUAAUCAUUUCAAGGGUA [A56U U133C] the value was 2.27; for GUUAACGGUCAUAGGCCAUGGAAACUAGGAGCACCAUUUCGCUGCCAGUGAAGAAAAGAACAAAGAAAAUCUGGGCCAGGCAGGCAUCUAAAGAAAUAGUCUUGCGCUCAACCAGAAAGUCUGUAAUCAUUUUAAGGGUA [U57A A89U], 0.95.
On to GUUAACGGUCAUAGGCCAUGGAAACUAGGAGCACCAUUUCGCUGCCAGUGAAGAAGUGAACAAAGAAAAUCUGGGCCAGGCAGGCAUCAAAAGAAACAGUCUUGCGCUCAACCAGAAAGUCUGUAAUCAUUUUAAGGGUA [A56G U97C], for which the self-cleavage came to 0.4.
Then GUUAACGGUCAUAGGCCAUGGAAACUAGGAGCACCAUUUCGCUGCCAGUGAAGAAUUGAACAGAGAAAAUCUGGGCCAGGCAGGCAUCAAAAGAAAUAGUCUUGCGCUCAACCAGAAAGUCUGUAAUCAUUUUAAGGGUA [A56U A63G], with 2.61; and GUUAACGGUCAUAGGCCAUGGAAACUAGGAGCACCAUUUCGCUGCCAGUGAAGAAAAGAACAAAGAAAAUCUGGGCCAGGCAGGCAUCAAAAGAAAUAGUCUUGCGCUCAACCAGAAAGUCUGUAAUCAUUUUAAGGGUA [U57A], with 0.69; and GUUAACGGUCAUAGGCCAUGGAAACUAGGAGCACCAUUUCGCUGCCAGUGAAGAAAAGAACAAGGAAAAUCUGGGCCAGGCAGGCAUCAAAAGAAAUAGUCUUGCGCUCAACCAGAAAGUCUGUAAUCAUUUUAAGGGUA [U57A A64G], with 1.32.
For GUUAACGGUCAUAGGCCAUGGAAACUAGGAGCACCAUUUCGCUGCCAGUGAAGAAUUGAACUAAGAAAAUCUGGGCCAGGCAGGCAUCAAAAGAAAUAGUCUUGCGCUCAACCAGAAAGUCUGUAAUCAUUUUAAGGGUA [A56U A62U] the value was 1.15.
